Measured values taken from article PMC11417369, “DNA sequence and chromatin differentiate sequence-specific transcription factor binding in the human malaria parasite Plasmodium falciparum”.

T1: AP2-G D1 (Plasmodium falciparum, UniProt Q8I5I9 2123-2245)
T1 sequence: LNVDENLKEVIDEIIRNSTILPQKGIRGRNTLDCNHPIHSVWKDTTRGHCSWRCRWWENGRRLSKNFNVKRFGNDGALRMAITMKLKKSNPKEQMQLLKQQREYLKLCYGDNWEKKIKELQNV

B1: XGTACX_site7594 (dsDNA)
DNA 1: AGACGTAATAATTGTTGTACATAAAAAAATAAGAAA
DNA 2: TTTCTTATTTTTTTATGTACAACAATTATTACGTCT
B2: XGTACX_site1598 (dsDNA)
DNA 1: CTAATAAAAAAAAAAAGTACATATGACAATATAAAG
DNA 2: CTTTATATTGTCATATGTACTTTTTTTTTTTATTAG
B3: XGTACX_site4322 (dsDNA)
DNA 1: TTACGATACTTTAGGTGTACACAAATATACATGAAT
DNA 2: ATTCATGTATATTTGTGTACACCTAAAGTATCGTAA
B4: XGTACX_site5109 (dsDNA)
DNA 1: TTTTTTTTTTTTTTTGGTACACATTTTGGTTAATGG
DNA 2: CCATTAACCAAAATGTGTACCAAAAAAAAAAAAAAA
B5: XGTACX_site3520 (dsDNA)
DNA 1: ATATATATATATATATGTACTTATTTATCGTATTAT
DNA 2: ATAATACGATAAATAAGTACATATATATATATATAT
B6: XGTACX_site6448 (dsDNA)
DNA 1: AATTTATATGTTTTGTGTACACAATTTATTAAATTA
DNA 2: TAATTTAATAAATTGTGTACACAAAACATATAAATT
B7: XGTACX_site8830 (dsDNA)
DNA 1: AAATGCTAAAAATAGAGTACAGATAACGAAAAGTGT
DNA 2: ACACTTTTCGTTATCTGTACTCTATTTTTAGCATTT
B8: XGTACX_site2641 (dsDNA)
DNA 1: TATATATATTTAAGGTGTACATAAATAACAAAATAT
DNA 2: ATATTTTGTTATTTATGTACACCTTAAATATATATA
B9: XGTACX_site930 (dsDNA)
DNA 1: ATACATATTAATATGTGTACACATTTTTATTTTTTT
DNA 2: AAAAAAATAAAAATGTGTACACATATTAATATGTAT
B10: XGTACX_site6063 (dsDNA)
DNA 1: ATGCATATATTTATGTGTACATATATTTGTAGGGGG
DNA 2: CCCCCTACAAATATATGTACACATAAATATATGCAT
B11: XGTACX_site2176 (dsDNA)
DNA 1: CTTCTTATTTTCTAATGTACGTACAAATCATTTATA
DNA 2: TATAAATGATTTGTACGTACATTAGAAAATAAGAAG
B12: XGTACX_site3365 (dsDNA)
DNA 1: TATATGGGATATATGTGTACATATAAAATATGTATC
DNA 2: GATACATATTTTATATGTACACATATATCCCATATA
B13: XGTACX_site2541 (dsDNA)
DNA 1: ACAGCTACCAGATACTGTACTTTTCTCCAGACTGCA
DNA 2: TGCAGTCTGGAGAAAAGTACAGTATCTGGTAGCTGT
B14: XGTACX_site8893 (dsDNA)
DNA 1: ATATATATATATATATGTACATATATATTGTTGATC
DNA 2: GATCAACAATATATATGTACATATATATATATATAT
B15: XGTACX_site1288 (dsDNA)
DNA 1: TAAAGAGTCATGTGGTGTACCTGCTTCACCACATAT
DNA 2: ATATGTGGTGAAGCAGGTACACCACATGACTCTTTA
B16: XGTACX_site2257 (dsDNA)
DNA 1: CAAAATATACACACGTGTACACAAATATTTACAAAA
DNA 2: TTTTGTAAATATTTGTGTACACGTGTGTATATTTTG
B17: XGTACX_site1814 (dsDNA)
DNA 1: TTAAGAATATTTTCATGTACTCATTTTTTTTGTTAT
DNA 2: ATAACAAAAAAAATGAGTACATGAAAATATTCTTAA
B18: XGTACX_site1238 (dsDNA)
DNA 1: ATGTGCACATATAAAAGTACACGCACATATATATAT
DNA 2: ATATATATATGTGCGTGTACTTTTATATGTGCACAT
B19: XGTACX_site7234 (dsDNA)
DNA 1: ATTTCCTTTTTCTGTTGTACTCATAAAATAATATGT
DNA 2: ACATATTATTTTATGAGTACAACAGAAAAAGGAAAT
B20: XGTACX_site1387 (dsDNA)
DNA 1: AAAAAAAATTATATATGTACTTATTAATCCTTTTAT
DNA 2: ATAAAAGGATTAATAAGTACATATATAATTTTTTTT
B21: XGTACX_site3357 (dsDNA)
DNA 1: AATATCCACATTAGGAGTACACAGCTAACTGTTTGA
DNA 2: TCAAACAGTTAGCTGTGTACTCCTAATGTGGATATT
B22: XGTACX_site5322 (dsDNA)
DNA 1: TATATATATATATGTAGTACTTTACAAAATAATTCG
DNA 2: CGAATTATTTTGTAAAGTACTACATATATATATATA
B23: XGTACX_site8545 (dsDNA)
DNA 1: TTACACATGTTTAACTGTACACATAATAGCAATATT
DNA 2: AATATTGCTATTATGTGTACAGTTAAACATGTGTAA
B24: XGTACX_site8319 (dsDNA)
DNA 1: AAAAAAATATTAATGTGTACATAATAATAACATATA
DNA 2: TATATGTTATTATTATGTACACATTAATATTTTTTT
B25: XGTACX_site1944 (dsDNA)
DNA 1: TTCAAAAATATATAATGTACACAAATATAAAAGAAT
DNA 2: ATTCTTTTATATTTGTGTACATTATATATTTTTGAA
B26: XGTACX_site366 (dsDNA)
DNA 1: TAATATTTCATTAGGTGTACACTACATAGTAGTAGA
DNA 2: TCTACTACTATGTAGTGTACACCTAATGAAATATTA
B27: XGTACX_site7381 (dsDNA)
DNA 1: TATCTTTATATATAGTGTACACATTAAACAAATCTC
DNA 2: GAGATTTGTTTAATGTGTACACTATATATAAAGATA
B28: XGTACX_site1573 (dsDNA)
DNA 1: TCCATTGTCACCTTTTGTACTTAAATTTTTTCCTCC
DNA 2: GGAGGAAAAAATTTAAGTACAAAAGGTGACAATGGA
B29: XGTACX_site4165 (dsDNA)
DNA 1: TTGTTTTTTTTTGGCTGTACGTTCATAAATTTTTTT
DNA 2: AAAAAAATTTATGAACGTACAGCCAAAAAAAAACAA
B30: XGTACX_site8843 (dsDNA)
DNA 1: ATAATTATTTTCCCGTGTACTTATTTTTTTCAAGTA
DNA 2: TACTTGAAAAAAATAAGTACACGGGAAAATAATTAT
B31: XGTACX_site8781 (dsDNA)
DNA 1: TAAATAAATTTGCACTGTACGCAAAAAAAAAAAAGA
DNA 2: TCTTTTTTTTTTTTGCGTACAGTGCAAATTTATTTA
B32: XGTACX_site3287 (dsDNA)
DNA 1: TTTTACAATATTTTGTGTACTTATATTATGAGCTTA
DNA 2: TAAGCTCATAATATAAGTACACAAAATATTGTAAAA
B33: XGTACX_site8237 (dsDNA)
DNA 1: TATAAAAATTAATATTGTACGTTTTATGAAAATAAA
DNA 2: TTTATTTTCATAAAACGTACAATATTAATTTTTATA
B34: XGTACX_site2113 (dsDNA)
DNA 1: AAGATAAAATAATAAAGTACACATATAAATTGAAAA
DNA 2: TTTTCAATTTATATGTGTACTTTATTATTTTATCTT
B35: XGTACX_site3785 (dsDNA)
DNA 1: ATATACATATGTGTGTGTACTTATATCACATTTTTG
DNA 2: CAAAAATGTGATATAAGTACACACACATATGTATAT
B36: XGTACX_site7939 (dsDNA)
DNA 1: GGATTTTTCGAATCATGTACATATTTAATTAAAAAA
DNA 2: TTTTTTAATTAAATATGTACATGATTCGAAAAATCC
B37: XGTACX_site4032 (dsDNA)
DNA 1: TTCATTTTTTATTATAGTACACATAATATTTGCAGA
DNA 2: TCTGCAAATATTATGTGTACTATAATAAAAAATGAA
B38: XGTACX_site5884 (dsDNA)
DNA 1: TCAAGTATTAAAATGGGTACATAAATATGTGTATAT
DNA 2: ATATACACATATTTATGTACCCATTTTAATACTTGA
B39: XGTACX_site6582 (dsDNA)
DNA 1: TTTCATTTTTTTACATGTACGCAAAAGTGTGTAGTT
DNA 2: AACTACACACTTTTGCGTACATGTAAAAAAATGAAA
B40: XGTACX_site3663 (dsDNA)
DNA 1: TTTTTTTCTTAAAGATGTACTTTTTTAAAATAATCT
DNA 2: AGATTATTTTAAAAAAGTACATCTTTAAGAAAAAAA
B41: XGTACX_site5662 (dsDNA)
DNA 1: TTATTCTAAAAAGGGTGTACACAAACGAATGGAAAA
DNA 2: TTTTCCATTCGTTTGTGTACACCCTTTTTAGAATAA
B42: XGTACX_site17 (dsDNA)
DNA 1: TTTTACAAATATTACTGTACACATTTTCATATAATT
DNA 2: AATTATATGAAAATGTGTACAGTAATATTTGTAAAA
B43: XGTACX_site6064 (dsDNA)
DNA 1: TAAAACATATAAAGGTGTACGCCTTTTTGTATCAAT
DNA 2: ATTGATACAAAAAGGCGTACACCTTTATATGTTTTA

What follows are binders tested against T1, AP2-G D1 (assay: gcPBM; about 25 ug protein; PBS, 1% milk, 0.2 mg/ml BSA, salmon testes DNA, 0.03% Triton X-100). Conditions: tags: N-terminal GST (pGEX-4T-1), kept; label: surface-attached array probe.

Binder | binding signal
B1 | 12.1 ln median PBM intensity, better of two orientations
B2 | 12.1 ln median PBM intensity, better of two orientations
B3 | 12.6 ln median PBM intensity, better of two orientations
B4 | 12 ln median PBM intensity, better of two orientations
B5 | 11.9 ln median PBM intensity, better of two orientations
B6 | 12.6 ln median PBM intensity, better of two orientations
B7 | 12.1 ln median PBM intensity, better of two orientations
B8 | 12.3 ln median PBM intensity, better of two orientations
B9 | 12.6 ln median PBM intensity, better of two orientations
B10 | 12.6 ln median PBM intensity, better of two orientations
B11 | 12.6 ln median PBM intensity, better of two orientations
B12 | 11.8 ln median PBM intensity, better of two orientations
B13 | 12.6 ln median PBM intensity, better of two orientations
B14 | 11.8 ln median PBM intensity, better of two orientations
B15 | 11.9 ln median PBM intensity, better of two orientations
B16 | 12.6 ln median PBM intensity, better of two orientations
B17 | 12 ln median PBM intensity, better of two orientations
B18 | 12.6 ln median PBM intensity, better of two orientations
B19 | 12.2 ln median PBM intensity, better of two orientations
B20 | 12 ln median PBM intensity, better of two orientations
B21 | 12.6 ln median PBM intensity, better of two orientations
B22 | 12.1 ln median PBM intensity, better of two orientations

Binder | binding signal
B23 | 12.2 ln median PBM intensity, better of two orientations
B24 | 11.9 ln median PBM intensity, better of two orientations
B25 | 12 ln median PBM intensity, better of two orientations
B26 | 12.2 ln median PBM intensity, better of two orientations
B27 | 12.4 ln median PBM intensity, better of two orientations
B28 | 11.9 ln median PBM intensity, better of two orientations
B29 | 11.9 ln median PBM intensity, better of two orientations
B30 | 12.6 ln median PBM intensity, better of two orientations
B31 | 12.6 ln median PBM intensity, better of two orientations
B32 | 12.2 ln median PBM intensity, better of two orientations
B33 | 11.9 ln median PBM intensity, better of two orientations
B34 | 11.8 ln median PBM intensity, better of two orientations
B35 | 12 ln median PBM intensity, better of two orientations
B36 | 11.8 ln median PBM intensity, better of two orientations
B37 | 12.3 ln median PBM intensity, better of two orientations
B38 | 12.1 ln median PBM intensity, better of two orientations
B39 | 12.6 ln median PBM intensity, better of two orientations
B40 | 12 ln median PBM intensity, better of two orientations
B41 | 12.6 ln median PBM intensity, better of two orientations
B42 | 12.2 ln median PBM intensity, better of two orientations
B43 | 12.6 ln median PBM intensity, better of two orientations
